Test: yeast display, Sf9 membrane polyspecificity reagent, FACS + sequencing; frameworks hold sequencing errors
Summary of the method: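 In a synthetic yeast display library (Saccharomyces cerevisiae BJ5465), nanobody expression was induced with galactose for 36–48 hours. FACS gates were set low and high (top ~1%) using anti-HA fluorescence for expression and streptavidin fluorescence for binding of the Sf9 membrane reagent. Each polyreactivity label is drawn from the gate of origin.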

| Sequence | polyreactivity (PSR sort gate) |
| --- | --- |
| QVQLVESGGGLVQAGGSLRLSCAASGSIFLPYAMVWSRQAPGTERELVAAITWGGDSTYADSVKGRFTISRDNAKNTVYLQMNSLKPEDTAVYYCAAGAGFESDYWGQGTQVTVSS | low polyreactivity |
| QVQLVESGGGLVQAGGSLRLSCAASGSTFPRNAMGWSRQAPGKERELVAAISFRGSTTYYADSVKGRFTISRDNAKNTVYLQMNSLKPEDTAVYYCAADGGRQARTYSRYYWGQGTQVTVSS | high polyreactivity |
| QVQLVESGGGLVQAGGSLRLSCAASGRIFHYYAMGWYRQAPGTERELVAAITSSGGSTYYADSVKGRFTISRDNAKNTVYLQMNSLKPEDTAVYYCAAGLIVGRFLRYDYWGQGTQVTVSS | high polyreactivity |
| QVQLVESGGGLVQAGGSLRLSCAASGTFWLYTMGWYRQAPGKERELVAAISLTAGNTYYADSVKGRFTISRDNAKNTVYLQMNSLKPEDTAVYYCAADHYYYTRYEYWGQGTQVTVSS | low polyreactivity |
| QVQLVESGGGLVQAGGSLRLTCAASGFTFRSYAMGWYRQAPGKERELVADISIRGGGTYYADSVKGRFTISRDNAKNTVYLQRNSLKPEDTAVYYCAAERYKPFLWPRYDYWGQGTQVTVSS | low polyreactivity |
| QVQLVESGGGLVQAGGSLRLSCAASGSIFRGNAMGWYRQAPGKERELDATISNGGSTNYADAVKGRFTISRDNAKNTVYLQMNSLKPEDTAVYYCAKPLYKTWWGYAYDYWGQGTQVTVSS | high polyreactivity |
| QVQLVESGGGLVQAGGSLRLSCAASGFTFDYNTMGWYRQAPGKEIELVAGISRGGGSTYYADSVKGRFTISRDNAKNTVYLQMNSLKPEVTAVYYCNTVLKRQRKNEYWGQGTQVTVSS | high polyreactivity |
| QVQLVESGGGLVQAGGSLRLSCAASGSIFYVNTMGWYRQAPGKERELVAAISDSSGGTYYADSVKGRFTISRDNAKNTVYLQMNSLKPEDPAVYYCARDSTSHYDSGPYSSPFDYWGQGTQVTVSS | low polyreactivity |
| QVQLVESGGGLVQAGGSLRLSCAASGSIFGVYAMGWYRQAPGKERELVAAISWSGTSTYYADSVKGRFTISRDNAKNTVYLQMNSLKPEDTAVYYCNADWVLDGYDYDYWGQGTQVTVSS | low polyreactivity |
| QVQLVESGGGLVQAGGSLRLSCAASGRILPSNAMGWYRQAPGKERELVAGITSGGSTDYADSVKGRFTISRDNAKNTVYLQMNSLKPEDTAVYYCAAHPAYRDSWGEYDYWGQGTQVTVSS | low polyreactivity |
| QVQLVESGGGLVQAGGSLRLSCAASGSIFGYYAMGWYRQAPGTERELVAAINSDGSTDYADSVKGRFTISRDNAKNTVYLQMNSLKPEDTAVYYCATRYYSIFTFFISYTYDYWGQGTQVTVSS | low polyreactivity |
| QVQLVESGGGLVQAGGSLRLSCAASGRIFGYYAMGWYIQAPGKERELVAGIDWSGGNTYYADSVKGRFTISRDNAKNTVYLQMNSLKPEDTAVYYCNTEGGRDTAWYDYWGQGTQVTVSS | low polyreactivity |
| QVQLVESGGGLVQAGGSLRLSCAASGSIFVWNAMGWYRPAPGKERELVAAIRSDDDSTYYADSVKGRFTISRDNAKNTVYLQMNSLKPEDTAVITALVDSPTFSHVKPWDGGDYWGQGTQVTVSS | low polyreactivity |
| QVQLVESGGGLVQAGCSLRLSCAASGSTFDNYAMGWYRQAPGKERELVAAISSSGTRTYYADSVKGRFTISRDNAKNTVYLQMNSLKPEDTAVYYCAAGGHYYSSPGYNYWGLGTQVTVSS | high polyreactivity |
| QVQLVESGGGLVQAGGSLRLSCAASGITFSYYAMGWYRQAPGKERELVAAISGSGTSTYYADSVKGRFTISRDNAKNTVYFQMNSLKPEDTAVYYCAAGPPRKPGYYYWGQGTQVTVSS | high polyreactivity |
| QVQRVESGGGLVQAGGSLRLSCAASGRPFDVYALGGYRQAPGKERELVATITYSGGITYYADSVKGRFTISRDNAKTTVYLQMNSLKPEDTAVYYPIGVGGDYDYWGQGTQVTVSS | low polyreactivity |
| QVQLVESGGGLVQAGRSLRLSCAASGRIFADYAMGWYRQAPGKERQLVAAITSGGTTYADSVKGRFTISRDNAKNTVYLQMNSLKPEDSAVYYCAAQGQGRTGGFGKGSTYGYWGQGTQVTVSS | low polyreactivity |
| QVQLVESGGGLVQAGGSLRLSCAASGSNFGPYAMGWYRQAPGKERELVAAISYSSVRTYYADSVKGRFTISRDNAKNTVYLQMNSLKPEVTAVYYCNAYFRYAYPSKMDYWGQGTQVTVSS | low polyreactivity |
| QVQLVESGGGLDQAGRSLRLSFAASGRTFDLYPMGWYRQAPGKERELVAAITNGETYADSVKGRFTISLDDAKNTVYLQMNSLKPEDTAVYYCAKYDPWFWRAEDYWGQGTQVTVSS | low polyreactivity |
| QVQLVESGGGLVKAGGSLRLSCDASGSILWENAMGWYRQAPGKERELVATISVSGGGTYYADSVKGRFTISRDNAKNTVYLQMNSLKPEDTAVYYCNARYGNESQGWEDYWGKGTQVTVSS | low polyreactivity |
| QVQLVESGGGLVQAGGSLRLSCAASGITFGRYAMGWYRQAPGKERELVAAISWSGGSTYYADSVKGRFTISRDNANNTVYLQMNRLKPEDTAVYYCNVVFRFNSFDYYYWGQGSQVTVSS | high polyreactivity |
| QVQLVESGGGLVQAGGSLRLSCAASGSIFSVNAMGWYRQAPGKERELVATITAGGGSTNYADSVKVRFTISRDNAKNTVYLQMNSLKPEDTAVYYCAADYWYVSWYDYWGQGTQVTVSS | low polyreactivity |

| Sequence | polyreactivity (PSR sort gate) |
| --- | --- |
| QVQLQESGGGLVQAGGTITLGYDMGWYRQAPGKEREFVAGIDTGAITYYADSVKGRFTNSRDNAKNTVYLQMNSLKPEDTAVYYCAAIQTHTYAHSYWGQGTQVTVSS | high polyreactivity |
| QVQLVESGGGLVQAGGSLRLSCAASGSTFTRYVMGWYRQAPGKERELVAAISKRGGSTYYADSVKGRFTISRDNAKNTVYLQMNSLKPEDTAVYYCNRVSRAPFDYWGQGTQVTVSS | high polyreactivity |
| QVQLVESGGGLVQAGGSLRLSCAASGFTFRQYAMGGYGQAPGKEREWVASIRNGGSTNYADSVKGRFTISRDNAKNTDYFQMITLKPEDTALYYCSQRHSRTNMYYWGQGTQVTVSS | high polyreactivity |
| QVQLVESGGGLVQAGGSLRISCAASGSIFSRNAMGWYRQAPGKERELVAAITSGGSTYYADSVKGRFTISRDNAKNTVYLQMNSLKPEDTAVYYCAAVDYYGYVPEFGYWGQGTQVTVSS | low polyreactivity |
| QVQLVESGGGLVQAGGSLRLSCAASGFIFVRNAMVWYRQAPGIERELVAAIRWSGGSTYYADSVKGRFTISRDNAKNTVYLQMNSLKPEDTAVYYCAKEPPPVKGDYWGQGTQVTVSS | low polyreactivity |
| QVQLVESGGGLVQAGGSLRLSCAASGLTSSGNAMGWYRQAPGKERELVAAISWKAGSTYYADSVKGRFTISRDNAKNTVYLQMNSLKPEDTGVYYCAATLWSKTGYDYWGQGTIVTVSS | low polyreactivity |
| QVQLVESGGGLVQAGGSLPLSCAASGRIYDSYAKGWYIQAPGKERELVAAISFGGDTYYADSVKGRFTISRDNAKNTVYLQMNSLKPEDTAVYYCAKDNPAALFDSWGQGTQVTVSS | low polyreactivity |
| QVQLVESGGGLVQAGGSLRLSCAASGLIFSTYDMGWYRQAPGKDRELVAAISTGGSTYCADSVKGRFTMSRDNAKYTVYLQMNSLKPEDTAVYYCAAGYTYHSWPLYYWDYNYWGQGTQVTVSS | low polyreactivity |
| QVQLVESGGGLVQAGGSLRLSCAASGRTFSRNAMGWYRQAPGKERELVAAISDGGGSTYYADSVKGRFTISRDNAKNPVYLQMNILKPEDTAVYYCAARVLDWRGDIHDSEYWGHGTQVTVSS | low polyreactivity |
| QVQLVESGGGLVQAGGSLRLSCAACGIIFSWYAMGWYRQAPGKERELVAAISSSGGTTFYADSVKGRFTISRDKAKNTVYLQMNSLKPEDTAVYYCAVVGPPYYTWRVWRPAYDYWGQGTQVTVSS | high polyreactivity |
| QVQLVESGGGLVQAGGSLRLSCAASGRIFYSNTMGWYRQAPGKERELVARIDTGGGSTYADSVKGRFTISRDNAKNTVYLQMNSLKPEDTAVYYCAALKFEAWAGEDYWGQGTQVTVSS | low polyreactivity |
| QVQLVESGGGLVQAGGSLRLSCAASGRTFWKYVMGWYRQAPGKERELVAVISRPAGSTYYADSVKGRFTISRDNAKNTVYLQMNSLKPEDTAVYYCAKRPKNKPVLGDYDHWGQGTQVTVSS | low polyreactivity |
| QVQLVESGGGLVQAGGSLRLSCAASGSIFYYYSMGWYRQAPGKERELVATISSTTTTYADSVKGRFTISRDNPINTVYLNMNSMKPEDTAVYYCSFDYWGHGTQVTVSS | low polyreactivity |
| QVQLVESGGGLVQAGGSLRLSCAASGSTFSSYTMGWYRQAPGKERELVAAISRSGGRTYYADSVKGRFTISRDNAKNTVYLQMNSLKPEDTAVYYCNAGLGIEYDYWGQGTQVTVSS | low polyreactivity |
| QVQLVESGGGLVQAGGRLRLSCAASARIFYSKVMGWYRQAPGKERELVAAISGRTGGTYYADSVKGRFTISRDNAKNTVYLQMNSLKPEDTAVYYCAARVIDYYGSGPYDYWGQGTQVTVSS | low polyreactivity |
| QDQLVESGGGLVQAGGSLRLSCAASGSIFWVYVMGWYSQAPGKERELVAAITNGGSTDYADSVKGRFTISRDNAKNTVYLQLNSLKPEDTAVYYCAKRSPIWGRILITYDYWGQGTQVTVSS | low polyreactivity |
| QVQLVESGGGLVQAGGSLRLSCAASGSTFKRYAMGWYRQAPGKERELVAANSASGGSTSYADSVKGRFTISRDNAKITVYLQMNSLTPEDTAVYYCAPYYWLYSSSYDYWGQGTQVTVSS | high polyreactivity |
| QVQLVESGGGLVQAGGSLRLSCAASGSIFRRYAMGWYRHAPGKEREFVAAITRSGGGTYYADSVKGRFTISRDNAKNTVSLQMNSLKPEDTAVYFCAKDVFVQRSRYPEGDYWGQGTQVTVSS | high polyreactivity |
| QVQLEESGGGLVQAGGSLRLSCAASGSTFWVYVMGWYRQAPGKERELVATIRWSTSSTYADSVKGRFTISRDNAKNTVYLQMNILKPEDTAVYYCNTYPRGNWGNFVEQDYDYWGQGTQVTVSS | low polyreactivity |
| QVQLVESGGGLVQAGGSLRLSCAASGITFYDNAMGWYRQAPGKERELVAGISSGGRTYYADSVKGRFTISRDNAKNTVYLQMNSLKPEDTAVYYCNAASLVAYLARLGRDYWGQGTQVTVSS | low polyreactivity |
| QVHLVDSGAGLVQAGGSLRLSCAASGYTFYANAMGWYRQAPGKERELVAGINRSGSTYYADSVKGRFTISRDNAKNTVYLQMNSLKPEDTAVYYCATAWHRGVRGRTSGAFDYWGQGTQVTVSS | high polyreactivity |

— the nanobody polyreactivity screen of Harvey et al. (2022)
